Reference: the DeepSol protein solubility set

Test: soluble on expression in E. coli; label from the status in PepcDB or PDB records

Sequence | soluble on expression in E. coli
MKIALMMENSQAAKNAMVAGELNSVAGGLGHDVFNVGMTDENDHHLTYIHLGIMASILLNSKAVDFVVTGCGTGQGALMSCNLHPGVVCGYCLEPSDAFLFNQINNGNAISLAFAKGFGWAGELNVRYIFEKAFTGKRGEGYPIERAAPQQANAAILNNVKAAVAKDVVEGLRAIDQELVKTAVGSTQFQECFFAHCQVPEIAEYVKSLLD | soluble
MGSDKIHHHHHHVGTGDGNAIWPIRSVHLIGAIYPHILEELMLNTVILYSTVDGQTLAICQKIKQILVEQGEQVSVVNLAEVEADDLASVDKVVIGASIRYGKHRPELFKFVEQHKVLLDTKHNSFFSVNVVARKPEKNTPETNPYMQKFSNLSAWKPQLLGVFAGKIDYPRYRFFDKFMIRFIMWMTKGPTDTQGTFEFTDWGKVDDYAKQIAAQK | not soluble
MPQESSDAKRIEPPRKVDFMLKPRFTNTVPDVPFDAKFMTCPFVPLGRFVEFQPAAIYRDYKHAVICDDDMGLNVDLIDLKKYDEDPIETEIDEKDNILLEDDGAAKLIAKRSQQHSKLVPWMRKTEYISTEFNRFGVTADRQETKLGYNLKKNQQVEDMYRDKQSQIDAINKTFEDVRKPVKEHYSKKGVKAVEESFVFPDFDHWKHLFAHVQFDGDTITTEFEEEDERQQARESSVIKAMEFEDQKFAAVFVPTIGCLTSFMDDLELERPFDEDMKYEFLLSREYTFKMEHLPPRDRDVFIMYHRNNVFQYNEVDCNVKMTRKPKMALSRKSKLTLTYRNPSELEQKDMNKREAELYEQPKTRKQEILEKIQEKKEEGGDSSDQSSDSDDDKPQKSRSDSSSDVSSDDDSPRKKEPTVDSDSD | not soluble
MLIERIYDEDLAQASYFIGCQAHNTAVVVDPRRDIAVYLDMAKKNGMEIVGVTETHIHADYLSGTRELAAATNATMYVSGEGGADWQYEFDAERICDGSEIRLGNLVLTAVHTPGHTPEHLSFLLKDGAFADEPGFMLTGDFVFAGDLGRPDLLDEAAGGVDTRFEGARQMFKSLKEKFLTLPDHIQIFPGHGSGSACGKALGSVPSTTLGYERQFAWWGKYLEADDEQGFIDELLEGQPDAPAYFGRMKRQNRQGPAIMGARELLPQLEASDLHDVIVVDTRSADEVHQGTVAGAVNIPAGNSMAKFGSWTVDPEKDSRALVLLAASQIGAMEMWDHMVRVGIDNVAGFITNFDGVDLVAPQTVSPDQLDELEYDLLLDVRNRSEVEEGYIPGALHINGASVLWNLEKLPRDGKIVSYCKSGTRSSIAASTLRNAGFDVVELQGSYDNWVRHNAQLEHHHHHH | not soluble
MEYREFDFWYYKIGNGDANLTCKMSYNPKSPIFTDFPDTVVHTVLEKLLPAERMVVRNVSKKLRNLFDERYRVIKNVYMQVQDEEAILFFENHEELEKTFSCNGNDGNEKYLEIALEKVAKFTKNHKLEEFEVHFDDEAGEKHRWGLYDDVSDMFKASKAVLNTKKFSIELLRPDDAKAAFSHFKPGNLEDIEIEYFCTGYKYPKYPRCPRYDDDSDDSFEDNMGMYEQLTELAHWQKAKKVKIGVDDSLDFSIEALFHLENFEISLNKFTKNDAIKIRDVLLQTAHFQSGIITFSKDPGGTNMLKVFNPKYSGGENGPIIYKTKDSRFEIGLGYSSIEFKRI | not soluble
SAKAVRIGAEGYKLKLDGAVQEIDGRSVVLVDVDSITPLMFGGSMKEKAKLLDAKFLRKYYEENKDFFFLSTREEKKMFVTLQLAREYAELVDDQFLRGFFEKALESAQKAF | soluble
MTIKTGNIRTNSLAEIYRNSPVFQNLRNPDKYKGKCGVCEFRYVCGGSRSRAYAMTGGLYGKMAGDPLEHHHHHH | not soluble
MRVGLVHGFLSRRYLDFWRAYLEALGVEVVEAAPPPSDLPFCLPVQRLLAQVEALKEAGVDYLLLPDLQGGVESERGGGQCPWLLDLEAALLRYFPGLPPVLKVPAELSERVLGRAGEVGQLLVRNPMLVGRALDRTRRLLKPPPPLPTPQGSVGVVAQPYLLEEPAFRREVEAALRAHGLEAYFPDLPPERLREEADRLLPVDLPTDRELVGAIHYLGRLGRVKGLALVVSYACPPIPGLMRKAARRLGKPYRLLTLGEDWQEPLAALKAEMEKGNRGG | soluble
MHHHHHHMKRKSIFKDKVFLFLNAKQYKKLSPAVLFGGGKTDLLMGELKDASVLDNPATCVIDVAMTESQLSESQSTQPWITSTLDLLQSKGLRTIPEAEIGLAVINVSTEIYCNPRR | soluble
MDCKELARIFYALSEPKRLCMVKLLLEREELCVCDFMRIFKESQPKISFHLKVLREAGLVTSQKRGKWNYYRLNKEAPVIPCVEKLLKDVKLEEKIQLEVKR | soluble
TVVCDNGYGDLAATSALTTVIKDPISLTIKDIYEHGVKNPFTKIIHKLKKFIRYRKVLRWSRMWWVLLVREIVGDNTIEKKTEKALREIWDQCTIAVYNNTLNAVESKPLLFLHGILNECRNNFATKLRQDPSLIVAKIDQIIKSQIYRFWVSEPYLKIGRSHTLYTHITPDAVPQLPKECTLKHLSSYMEEKLKSMESKKNIESGKYEFDVDSSETDSTKDDGKPDDDDDDDDNFDDDDNFDDDTVEEEDASGDLFKNEKKDENKE | soluble
SRTVALGIVAMACLVAIAHGGNFFQDAEVSWGQGRGKIVDGGRGLDLTLDRSSGSGFQSKSEYLFGKIDMQIKLVPGGWWNQELSDMSYRRMRWVQRKFMIYNYCTDAKRFPQGTPAECKLR | soluble
MEFKLLQTFIEVVRQGSFSKAAENLFTTQSTVSKAIKQLEEELGITLIERFKKRNVPTTAGEIVYQRGTKLLADRDDLLKELDEIRGLKQGRLRLGISPVGSSTLFAPLFVLYRQRYPGIEVELVEHGSDKLAECLRAGEIDFAGTLLPISEEFDCQLVRSEPLVALLASGHPLATKHCISLPELKEIPFILFGSGFALHRIILDACRHAGFEPKVVAQSSQIDFMLELVAAGLGVTFLPRMIATQRHTTQIRSLLLNGSEFQWNMAMTWRRNSYLSEAAQAWLALVREVHVDN | not soluble
MGSDKIHHHHHHMPLDLDTALSSHQPLSLNERKLLDILRRRGAITRATVSAEMDLAQQSVHRLIEELISRGLLRSGERVKNGRGQPSPRIELVNEAVYAIGVSINTDSAVVCVADLGCNVLEQVTLRTPPLSRNSTLDSLAKTIERMLQRNGIETDRVIGMGFAIAGFFLENRQINAPEPLRDWSLIDLQPVLEERFGMPVWLENNATTAAIGESLVGVGAWASNFIYLSFNFGFGAGVVINGKPYFGSHGNAGEITLYNDEESINRPALRYLLEELHQKGVQVDSIEDLRLRFDPNWPGVDTWLKRIQPTLDRLVNALAGLFDPQAVVFGGQLPAELGKRLIAATTFWGTHRYNSPPPRPRLLLSETNGDAAAIGAALVPLKERFFV | not soluble
MSLKIESNAFRLIEPGVFKKDTLTHDFEEKDIIVKPTKASVCHADLRYYTGNRRPEALAKKLPMALFHEGIGIVEDSKHPDFQQGDKVVIVPNIPSHLRKGTYPTTSFQDNYDENAVFMGSGFDGICQDRMVVSGDNVVKVPTDLDEDVALLAELCSVSLFPINQLDEITTETSPQVAIFGDGPVGYLAATALHYIYGIDKANLIVFGAVQEKLAAFEDFATTHLVFDFDFNQYRGVHTVFECTGGKFSESAINQAIDLIDRQGHIVLMGVTEERVGINTRDVLEKGLTFSGSSRSTKREFEQLIHAFSNKQYQQALRQLIPETYYHIHDTSDLKEAMDDTAAHKGWKKTYLQYHEGHHHHHH | soluble
MRYGFMKVAAAVPFVKVADCEYNIERIDRMVHEADAKGVEIMTFPELSITGYSCGDLFFQPFLQERANEALCRLVEQTANTTVMVIVGMPLRVEEKLFNSAVVFQQGKILGAIPKTYLPNYREFQEARWFSPAHTLQYSTISIGQHSVPIGRNLIFKCGTVGVGIEICEDMWTPFTPGTRLCLYGAEVIFNLSSSNENAGKHSYLRSLISGLSSQGICAYVYASSGYGESSTDIVFTGKAFIAEAGEIVEEMERFRYEERMIISDIDVSRIQTERLINSSFKAAVTFHTHDEKFNQLPFKLRSRQESLPMTRRVDRNPFMPEDKDRKERSREMINIQVCGLMQRLLHMGAEHAVIGISGGLDSALALIVCAQAFDRLDLPRKNIIAVTMPGFGTSDRTYRNAFALMEAIGVTIKEIDIKEACLRHFEAIGHNPEVQDTTFENTQARERTQILMNLANIYNAPVIGTGDLSELALGWVTYNGDHMSMYAVNAGIAKTTVQILVDHIAHSGWLDEAASAVLLDIVRTPISPELKPVGQLEHHHHHH | not soluble
MAHHHHHHMRDRVSPGMRPYRNMCASSPCGRLSHWVVALLPLPLSGTRHLLLRIPITRTHTHTHAAHATDKSEVLSSVVAPPPPPGHAALTTVYFVLVVDVGTHLSLSLSMNRDGVEDGIYVNFFGFDGKAAMLACDMYGILPENLLYLPKKMFLQTGDESEQVLLVRYTMCERSRQGTFRTLLGAKSKLIAEGKVEALWEERRRVCQGAAPCPRFTEKQLEEAAAALDTDSESDEERQVDERGMRKPPPPLPPAPPFAPDGPRGEAAAEAAATENDESPTPVTDTPFSRAPDSEPLPPPPTQASSDAGGETRRGSGTTATNDNAALAVDAKRTTQQLPNDWTQYDVVNSLELPRAHKLCSQPPSIPQAYFPRLLETLSMEEKELAAAQKELSRYSKKSARRLRARQQERSNEPSAPGRSTSLPPLSSSPAHKPATTHLHQSVELRNRRELAAVHRVAQAHLRFLSERYEQGRSIDEKMEGVATLGTLEHMLKYQKSIGVAPEFEDRLQSKMVREESRAALQQQLRESEWERAYAIEEKAQHAQEVLERERERTKGIVAEALRTQRLITDWKQVAAHRQQETHLNGVLHRSAVRHAKADAYIETKRAATGMSRYYHDQQEVHRRQLRDTIRDMMISKKFSADGVADEDNDVVA | not soluble
MGHGEEPLTATYKTQRPPWIGLWSDREYKGRADWWKEPGLEDSVTRSGKLRLYRARFREEDPDWYDPKVKDGESLAGPFGLDSKKTKNLTKKGDQPGELSEFQNKVYEGSHQFKAIAEKFGISKEHPGLSVSPTLSDNMLTPKDELGRNAVLPNSWYPAGPRFFDSPLNEGSFWKGLAAAKYAGILLAPYTMLEIRALNTVSVSEFSPRTYMKRYLQLAPFPLAVAFAWGFSLSAASSIRHKDDVHNHWFASVAVGSTVATMKSNVALGTTAAIFTAILGAFWQYQRHSETGLQGMTAHPQSAGIWGGPLLWQKMQLGNADVPTTRY | not soluble
DNAVGPPASAPPPPSVPVAKALSRTLAPTAEFTGFLAAPETVELRSRVGGTLDAISVPEGRLVSRGQLLFQIDPRPFEVALDTAVAQLRQAEVLARQAQADFDRIQRLVASGAVSRKNADDVTATRNARQAQMQSAKAAVAAARLELSWTRITAPIAGRVDRILVTRGNLVSGGVAGNATLLTTIVSHNPMYVYFDIDEATWLKALRHTRSDKNPPVVNMGLTTDNGLPYQGVLDFMGNQMNRSTGTIRARAVIPDPDGMLSPGLFARISLPIGEPRETVLIDDLAVSADQGKNYVLIVGKENQVEYRPVELGQMVD | not soluble
FYDPLVFPSDEFDASISQVNEKINQSLAFIRKSDELLHNVNAG | soluble
MSSVGDFEEIILHDLKPYYHVPGAIHSEGITFVKETGTLLWVDIFKGEVHKVEDIEQPESSHSFFSISRANYGKNASIEYPPNPDELKESVGCIFPILDGASQNEIKQVLFGSKFGIGKLDFSKSEWEYVILYSECPELSTDRAYKLRSNDGNVSPDGKYIYVGLMSDFPFDLEPIGCLLRVDLLAHKIELVWNCLLIPNAIHWDESDQKTMYVTDSLNFTIWKCPGGDLLKRDELIDVKNSNNQSFESPEPDGSAIWFSKDGKHSGFLFITVWSTSKVQMFDLTNGKLLKEFILPEQTPRVSCCCFVGKDLFVTTANAEINDAVRTNTDKNGGCIYKIPNVLDGNVPLESTKRQPLH | soluble
MGGMPITSFKFLYYFQIDDGDEETDIYLSPKEKATQTFSIKYNNNNTPTFSGDLRAGEKYTFDFHINFYDFATITIVQKREGEEELRIEYLNIPVEKRSEDHFERHF | not soluble
